From patent US20140165223A1, “TNF SUPERFAMILY TRIMERIZATION INHIBITORS” (B.S.R.C. "Alexander Fleming", priority 2011, published 2014)

T1: GST-RANKL (Mus musculus, UniProt O35235)
T1 construct: a cDNA encoding the core ectodomain of murine RANKL residues 158-316, with or without the G278R substitution; made in house; host or cells: Escherichia coli BL21
T1 sequence (O35235 158-316): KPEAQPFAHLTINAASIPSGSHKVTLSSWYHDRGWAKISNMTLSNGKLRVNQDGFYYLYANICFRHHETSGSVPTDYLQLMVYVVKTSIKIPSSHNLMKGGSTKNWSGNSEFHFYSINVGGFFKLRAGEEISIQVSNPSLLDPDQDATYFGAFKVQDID

T2: RANKL (Mus musculus, UniProt O35235)
T2 construct: expressed in transfected cells; host or cells: HEK 293FT
T2 sequence (O35235 1-316): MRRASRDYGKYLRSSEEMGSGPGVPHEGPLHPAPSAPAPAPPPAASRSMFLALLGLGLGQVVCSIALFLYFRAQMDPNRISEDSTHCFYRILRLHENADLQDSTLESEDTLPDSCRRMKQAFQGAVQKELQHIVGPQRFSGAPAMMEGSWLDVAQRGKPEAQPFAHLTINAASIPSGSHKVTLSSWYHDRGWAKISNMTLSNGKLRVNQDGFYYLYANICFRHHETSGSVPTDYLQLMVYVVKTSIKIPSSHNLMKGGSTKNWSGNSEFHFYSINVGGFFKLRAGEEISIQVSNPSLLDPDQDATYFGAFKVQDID

T3: RANKL (Mus musculus, UniProt O35235, G278R)
T3 construct: expressed in transfected cells; host or cells: HEK 293FT
T3 sequence (O35235 1-316 G278R): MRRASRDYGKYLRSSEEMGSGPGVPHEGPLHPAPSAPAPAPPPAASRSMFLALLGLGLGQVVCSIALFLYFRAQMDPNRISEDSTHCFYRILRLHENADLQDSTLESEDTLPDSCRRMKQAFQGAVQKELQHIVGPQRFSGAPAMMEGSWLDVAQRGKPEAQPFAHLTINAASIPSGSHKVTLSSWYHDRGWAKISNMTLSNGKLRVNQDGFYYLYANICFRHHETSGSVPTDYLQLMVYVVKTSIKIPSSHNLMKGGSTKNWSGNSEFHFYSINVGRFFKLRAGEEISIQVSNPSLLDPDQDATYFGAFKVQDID


Experiments:
GST-RANKL [1] = molecular target: T1, GST-RANKL; experiment: Ex vivo RANKL-induced osteoclast formation (BM cells, M-CSF + GST-RANKL, TRAP staining); assay type: cell-based
Description: (§1) Instead, WT GST-RANKL (ratio 1:0) induced formation of TRAP+ giant osteoclasts (FIGS. 5A-5C). […] Incubation of WT GST-RANKL with GST at similar concentrations (12.5-100 ng/ml), didn't affect the formation of osteoclasts.
(§2) A novel small molecule inhibitor of TNF trimerization, named SPD304, has been recently reported^[35] to interact with glycine 122 (G122) that corresponds to G278 in RANKL.
(§3) BM cells were collected after flushing out of femurs and tibiae, subjected to gradient purification using FICOLL-PAQUE™ (GE Healthcare), plated in 24-well plates at a density of 5×10^5 cells per well and cultured in αMEM medium (GIBCO) containing 10% fetal bovine serum supplemented with 40 ng/ml RANKL (R&D Systems) and 25 ng/ml M-CSF (R&D Systems) for 5 days. Similarly, splenocytes were collected, plated in 24-well plates at a density of 10^6 cells per well and cultured in the presence of recombinant RANKL and M-CSF for 6 days. GST-RANKL^G278R was pre-incubated with WT GST-RANKL at room temperature for 20 min, prior to the stimulation of the BM cell cultures, in order to enable exchange of the RANKL variants and heterotrimer formation. Small molecule SPD304 (Sigma-Aldrich) was pre-incubated with 80 ng/ml GST-RANKL at various concentrations from 0.25 to 2 μM in αMEM medium for 1 hour at room temperature and then added to culture. Osteoclasts were stained for TRAP activity.

GST-RANKL [2] = experiment: as above; assay type: cell-based, mouse; settings: ratio WT GST-RANKL:GST-RANKL^G278R 0:1
Description: as §1, §2, §3

RANK-Fc = molecular target: T4, RANK-Fc (Mus musculus, UniProt O35305); experiment: Binding assay of GST-RANKL^G278R to RANK; settings: immobilized protein, serial dilutions of murine RANK-Fc
T4 construct: purchased R&D systems
Description: RANK-Fc interacted with GST-RANKL in a dose-dependent manner, but not with GST-RANKL^G278R or GST.
Nunc plates were coated with recombinant WT GST-RANKL, GST-RANKL^G278R or GST at 3 μg/ml and after blocking with 1% BSA, were incubated with increasing amount of recombinant mouse RANK-Fc (R&D systems). RANK binding was detected with a phycoerythrin (PE) conjugated goat anti-human IgG (Fc) (SouthernBiotech, Birmingham, USA) that was measured (539-573 nm) with the fluorescent plate reader TECAN infinite M200.

RANKL [3] = molecular target: T2, RANKL; experiment: Trimer formation in transfected HEK 293FT cells (native gel, Western blot); assay type: cell-based; settings: co-transfection with WT RANKL-FLAG
Description: (§4) Similar to the analysis of recombinant RANKL proteins, trimer formation was detected only in WT RANKL-Myc but not in RANKL^G278R-Myc.
(§5) HEK 293FT cells were transfected with 1 μg plasmid DNA using TransIt-293 transfection reagent (Mirus, Madison, Wis.). After 48 hours, transfected cells were harvested in PBS and the half quantity was diluted in equal volume of 2× Laemmli sample buffer, and analyzed in 12% acrylamide denatured gels. The remaining cells were lysed by sonication, centrifuged, and analyzed in 8% native acrylamide gels.

RANKL [4] = molecular target: T3, RANKL; experiment: as above; assay type: cell-based; settings: HEK 293FT, RANKL^G278R-Myc
Description: as §4, §5

T4 sequence (O35305 with tags, fused parts or gaps limits assumed): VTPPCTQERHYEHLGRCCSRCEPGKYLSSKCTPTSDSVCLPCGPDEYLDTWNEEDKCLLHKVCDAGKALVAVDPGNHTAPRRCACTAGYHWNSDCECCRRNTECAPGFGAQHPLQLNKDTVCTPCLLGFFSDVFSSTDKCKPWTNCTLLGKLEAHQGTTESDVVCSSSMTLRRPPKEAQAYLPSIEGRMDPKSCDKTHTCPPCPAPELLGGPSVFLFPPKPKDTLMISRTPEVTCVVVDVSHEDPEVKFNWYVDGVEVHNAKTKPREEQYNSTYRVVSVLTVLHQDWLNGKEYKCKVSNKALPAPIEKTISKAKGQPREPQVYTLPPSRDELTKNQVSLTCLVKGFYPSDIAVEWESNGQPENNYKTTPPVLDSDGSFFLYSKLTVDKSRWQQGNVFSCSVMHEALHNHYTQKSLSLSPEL

binding affinity for RANK-Fc (RANK-Fc)	effect on WT RANKL trimerization (RANKL [3])	own trimer formation in eukaryotic cells (RANKL [4])	Molecule	formation of TRAP+ giant multinucleated cells (GST-RANKL [1]; ratio WT GST-RANKL:GST-RANKL^G278R 1:1)	formation of multinucleated TRAP+ osteoclasts (GST-RANKL [1]; ratio WT GST-RANKL:GST-RANKL^G278R 1:2 (50 ng/ml GST-RANKL, 100 ng/ml variant))	formation of TRAP+ giant multinucleated cells (GST-RANKL [1]; ratio WT GST-RANKL:GST-RANKL^G278R 2:1)	formation of giant osteoclast-like cells (GST-RANKL [1]; ratio WT GST-RANKL:GST-RANKL^G278R 4:1 or higher)	induction of TRAP+ cells by the variant alone (GST-RANKL [2])
completely abolished	–	–	GST-RANKL^G278R: murine RANKL ectodomain residues 158-316 with G278R substitution, fused to GST (protein) KPEAQPFAHLTINAASIPSGSHKVTLSSWYHDRGWAKISNMTLSNGKLRVNQDGFYYLYANICFRHHETSGSVPTDYLQLMVYVVKTSIKIPSSHNLMKGGSTKNWSGNSEFHFYSINVGRFFKLRAGEEISIQVSNPSLLDPDQDATYFGAFKVQDID	completely impaired the formation of TRAP+ giant multinucleated cells	Complete inhibition in the formation of multinucleated TRAP+ osteoclasts	a small number of TRAP+ giant multinucleated cells was formed	Formation of giant osteoclast-like-cells appeared	failed to induce formation of TRAP+ cells
–	inhibits WT RANKL trimerization	fails to form trimers	RANKL^G278R: murine RANKL with glycine to arginine substitution at residue 278; soluble or full-length Myc-tagged (protein, UniProt O35235 139-316, looked up, variant G278R, Myc tag, murine RANKL with glycine to arginine substitution at residue 278; soluble or full-length Myc-tagged) Tumor necrosis factor ligand …: FSGAPAMMEGSWLDVAQRGKPEAQPFAHLTINAASIPSGSHKVTLSSWYHDRGWAKISNMTLSNGKLRVNQDGFYYLYANICFRHHETSGSVPTDYLQLMVYVVKTSIKIPSSHNLMKGGSTKNWSGNSEFHFYSINVGRFFKLRAGEEISIQVSNPSLLDPDQDATYFGAFKVQDID	–	–	–	–	–
